The results in this text go back to the supplement of paper PMC7125110.

± gives the standard error. Variants at the floor of the assay were thinned out.

First the molecules themselves.
B1: glmS ribozyme (parent)
chain: AUAAAAGCGCCAGAACUACAGAAAUGUAGUUGACGAGGAGGAGGUUUAUCGAAUUUUCGGCGGAUGCCUCCAAA

Settings in all cases: with glucosamine-6-phosphate
In series [1] the parent is B1. Description: self-cleavage kobs at 40 uM GlcN6P; higher = faster cleavage; RNA array. Put shortly:
(§1)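 E. coli RNA polymerase transcribed barcoded ribozyme variants in situ on sequenced MiSeq chips, which were tracked via a hybridised Cy3 probe at 37 °C. Tiles were imaged over ~14 h after glucosamine-6-phosphate (40 μM to 10 mM) in HEPES/KCl/Mg(OAc)2 buffer was flowed in. Normalised per-tile medians were fit to one- or two-exponential decays for kobs, and kcat and KM came from weighted Michaelis–Menten fits.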

Variants of B1 are the subject of series [2]. Description: self-cleavage kobs at 640 uM GlcN6P; higher = faster cleavage; RNA array. Put shortly:
as §1

In series [3] the parent is B1. Briefly: self-cleavage kobs at 10000 uM GlcN6P; higher = faster cleavage; RNA array. The method in brief:
as §1

In series [4] the parent is B1. Briefly: self-cleavage kobs at 160 uM GlcN6P; higher = faster cleavage; RNA array. The method in brief: as §1
Series [5] covers variants of B1. Briefly: self-cleavage kobs at 2500 uM GlcN6P; higher = faster cleavage; RNA array. The method in brief:
as §1

Consider U55G U57G, for which, in the series with glucosamine-6-phosphate [1], the “self-cleavage kobs at 40 uM GlcN6P” value is below 1e-05 s⁻¹. In the series with glucosamine-6-phosphate [2], the “self-cleavage kobs at 640 uM GlcN6P” value is 5.98e-05 ± 2.6e-05 s⁻¹. Moreover, the “self-cleavage kobs at 10000 uM GlcN6P” value in the series with glucosamine-6-phosphate [3] is 5.12e-05 ± 1.3e-05 s⁻¹.
For the variant G7A A12C A42C U49A G60C, the “self-cleavage kobs at 40 uM GlcN6P” value with glucosamine-6-phosphate [1] is below 1e-05 s⁻¹. For the same variant, the “self-cleavage kobs at 10000 uM GlcN6P” value in the series with glucosamine-6-phosphate [3] is below 1e-05 s⁻¹.
With A1C U30G, in the series with glucosamine-6-phosphate [4], the “self-cleavage kobs at 160 uM GlcN6P” value came out at 0.000834 ± 0.00021 s⁻¹. The “self-cleavage kobs at 640 uM GlcN6P” value with glucosamine-6-phosphate [2] stood at 0.00402 ± 0.0016 s⁻¹. Also, the “self-cleavage kobs at 2500 uM GlcN6P” value with glucosamine-6-phosphate [5] was 0.00723 ± 0.0018 s⁻¹.
Turning to C16G U47A C50U A53G, in the series with glucosamine-6-phosphate [4], the “self-cleavage kobs at 160 uM GlcN6P” value is below 1e-05 s⁻¹.
Consider G9U U45C, for which the “self-cleavage kobs at 160 uM GlcN6P” value in the series with glucosamine-6-phosphate [4] was below 1e-05 s⁻¹. The “self-cleavage kobs at 640 uM GlcN6P” value in the series with glucosamine-6-phosphate [2] was below 1e-05 s⁻¹. Further, the “self-cleavage kobs at 2500 uM GlcN6P” value with glucosamine-6-phosphate [5] was below 1e-05 s⁻¹. Also, the “self-cleavage kobs at 10000 uM GlcN6P” value with glucosamine-6-phosphate [3] was below 1e-05 s⁻¹.
C10G A48G A64U U65A: the “self-cleavage kobs at 160 uM GlcN6P” value in the series with glucosamine-6-phosphate [4] is below 1e-05 s⁻¹. Moreover, the “self-cleavage kobs at 640 uM GlcN6P” value in the series with glucosamine-6-phosphate [2] was below 1e-05 s⁻¹. For the same variant, the “self-cleavage kobs at 2500 uM GlcN6P” value in the series with glucosamine-6-phosphate [5] is below 1e-05 s⁻¹.
As for C50A C67U C68U, in the series with glucosamine-6-phosphate [4], the “self-cleavage kobs at 160 uM GlcN6P” value was 6.13e-05 ± 3.1e-05 s⁻¹. Further, in the series with glucosamine-6-phosphate [2], the “self-cleavage kobs at 640 uM GlcN6P” value was determined as 6.87e-05 ± 2.8e-05 s⁻¹. The “self-cleavage kobs at 2500 uM GlcN6P” value with glucosamine-6-phosphate [5] was 0.000153 ± 6.2e-05 s⁻¹.
For the variant A6U A39U G40A, in the series with glucosamine-6-phosphate [1], the “self-cleavage kobs at 40 uM GlcN6P” value was below 1e-05 s⁻¹.
In the case of G29A G38U A39G C58A G66A, the “self-cleavage kobs at 40 uM GlcN6P” value with glucosamine-6-phosphate [1] is below 1e-05 s⁻¹.
As for U30A A39G, the “self-cleavage kobs at 40 uM GlcN6P” value in the series with glucosamine-6-phosphate [1] came out at 0.000182 ± 2.7e-05 s⁻¹. Besides, the “self-cleavage kobs at 160 uM GlcN6P” value in the series with glucosamine-6-phosphate [4] is 0.000615 ± 0.00023 s⁻¹. In addition, the “self-cleavage kobs at 640 uM GlcN6P” value in the series with glucosamine-6-phosphate [2] was found to be 0.00306 ± 0.0014 s⁻¹. Also, the “self-cleavage kobs at 10000 uM GlcN6P” value with glucosamine-6-phosphate [3] is 0.0319 ± 0.014 s⁻¹.
Consider U30A G32C G62A, for which the “self-cleavage kobs at 160 uM GlcN6P” value with glucosamine-6-phosphate [4] was below 1e-05 s⁻¹. Also, the “self-cleavage kobs at 2500 uM GlcN6P” value with glucosamine-6-phosphate [5] is below 1e-05 s⁻¹.
In the case of G37U C50G, the “self-cleavage kobs at 160 uM GlcN6P” value in the series with glucosamine-6-phosphate [4] was determined as 7.65e-05 ± 3.7e-05 s⁻¹.
As to A12G A39U A53C, the “self-cleavage kobs at 160 uM GlcN6P” value with glucosamine-6-phosphate [4] is below 1e-05 s⁻¹.
On to G7U U30C G32A, for which the “self-cleavage kobs at 160 uM GlcN6P” value with glucosamine-6-phosphate [4] is below 1e-05 s⁻¹. The “self-cleavage kobs at 10000 uM GlcN6P” value with glucosamine-6-phosphate [3] was below 1e-05 s⁻¹.
As to G29C A33C C61G C68U, the “self-cleavage kobs at 160 uM GlcN6P” value in the series with glucosamine-6-phosphate [4] is below 1e-05 s⁻¹. Besides, the “self-cleavage kobs at 640 uM GlcN6P” value in the series with glucosamine-6-phosphate [2] was below 1e-05 s⁻¹. In addition, the “self-cleavage kobs at 10000 uM GlcN6P” value in the series with glucosamine-6-phosphate [3] was below 1e-05 s⁻¹.
On to A6G G32U G40A C61G, for which the “self-cleavage kobs at 160 uM GlcN6P” value in the series with glucosamine-6-phosphate [4] was below 1e-05 s⁻¹. Further, the “self-cleavage kobs at 640 uM GlcN6P” value in the series with glucosamine-6-phosphate [2] is below 1e-05 s⁻¹. Besides, the “self-cleavage kobs at 2500 uM GlcN6P” value in the series with glucosamine-6-phosphate [5] was below 1e-05 s⁻¹.
Take C16U U47G: the “self-cleavage kobs at 40 uM GlcN6P” value with glucosamine-6-phosphate [1] was found to be 0.000296 ± 4.7e-05 s⁻¹. Moreover, in the series with glucosamine-6-phosphate [4], the “self-cleavage kobs at 160 uM GlcN6P” value was 0.000527 ± 0.00011 s⁻¹. Also, in the series with glucosamine-6-phosphate [2], the “self-cleavage kobs at 640 uM GlcN6P” value was 0.00106 ± 0.00021 s⁻¹. Also, in the series with glucosamine-6-phosphate [5], the “self-cleavage kobs at 2500 uM GlcN6P” value was determined as 0.00142 ± 0.00037 s⁻¹. Besides, the “self-cleavage kobs at 10000 uM GlcN6P” value in the series with glucosamine-6-phosphate [3] is 0.00951 ± 0.0018 s⁻¹.
Turning to U46G G60C A64U, the “self-cleavage kobs at 160 uM GlcN6P” value in the series with glucosamine-6-phosphate [4] was below 1e-05 s⁻¹. The “self-cleavage kobs at 2500 uM GlcN6P” value in the series with glucosamine-6-phosphate [5] was below 1e-05 s⁻¹. Moreover, in the series with glucosamine-6-phosphate [3], the “self-cleavage kobs at 10000 uM GlcN6P” value was below 1e-05 s⁻¹.
With G60U A64G, the “self-cleavage kobs at 40 uM GlcN6P” value in the series with glucosamine-6-phosphate [1] is below 1e-05 s⁻¹. For the same variant, the “self-cleavage kobs at 160 uM GlcN6P” value with glucosamine-6-phosphate [4] was below 1e-05 s⁻¹. Further, the “self-cleavage kobs at 640 uM GlcN6P” value in the series with glucosamine-6-phosphate [2] was below 1e-05 s⁻¹. Further, the “self-cleavage kobs at 2500 uM GlcN6P” value with glucosamine-6-phosphate [5] is below 1e-05 s⁻¹. The “self-cleavage kobs at 10000 uM GlcN6P” value with glucosamine-6-phosphate [3] was below 1e-05 s⁻¹.
On to G41C G51C A64C, for which the “self-cleavage kobs at 160 uM GlcN6P” value in the series with glucosamine-6-phosphate [4] was below 1e-05 s⁻¹.
As for G35U U69A, the “self-cleavage kobs at 160 uM GlcN6P” value with glucosamine-6-phosphate [4] was below 1e-05 s⁻¹. In addition, in the series with glucosamine-6-phosphate [2], the “self-cleavage kobs at 640 uM GlcN6P” value is below 1e-05 s⁻¹. Moreover, in the series with glucosamine-6-phosphate [5], the “self-cleavage kobs at 2500 uM GlcN6P” value was below 1e-05 s⁻¹.
Regarding C8U U47C G62U, the “self-cleavage kobs at 160 uM GlcN6P” value in the series with glucosamine-6-phosphate [4] is below 1e-05 s⁻¹. In the series with glucosamine-6-phosphate [2], the “self-cleavage kobs at 640 uM GlcN6P” value is below 1e-05 s⁻¹.
Regarding G7A U65C, the “self-cleavage kobs at 160 uM GlcN6P” value with glucosamine-6-phosphate [4] was below 1e-05 s⁻¹. Moreover, in the series with glucosamine-6-phosphate [2], the “self-cleavage kobs at 640 uM GlcN6P” value is below 1e-05 s⁻¹. Also, the “self-cleavage kobs at 2500 uM GlcN6P” value in the series with glucosamine-6-phosphate [5] is below 1e-05 s⁻¹. In the series with glucosamine-6-phosphate [3], the “self-cleavage kobs at 10000 uM GlcN6P” value was below 1e-05 s⁻¹.
In the case of G9C A53G, in the series with glucosamine-6-phosphate [4], the “self-cleavage kobs at 160 uM GlcN6P” value is below 1e-05 s⁻¹. For the same variant, the “self-cleavage kobs at 2500 uM GlcN6P” value with glucosamine-6-phosphate [5] was below 1e-05 s⁻¹. Also, the “self-cleavage kobs at 10000 uM GlcN6P” value in the series with glucosamine-6-phosphate [3] was below 1e-05 s⁻¹.
